Laboratory results: the nanobody polyreactivity screen of Harvey et al. (2022)

test: yeast display, Sf9 membrane polyspecificity reagent, FACS + sequencing; frameworks hold sequencing errors
Summary of the method: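 Polyreactivity labels are assigned by the sorting gate from which each nanobody was recovered. The gates were low and high (top ~1%), set on anti-HA fluorescence for expression and streptavidin fluorescence for reagent binding. Before sorting, galactose-induced (36–48 hours) yeast display cells were stained for 1 hour at 4 °C with 10% biotinylated, detergent-solubilized Sf9 membrane reagent.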

Sequence	polyreactivity (PSR sort gate)
QVQLVESGGGLVQEGGSLRFSCAASGSTFHSYAMGWYRQAPGKERELVAAISTSGGTTYYADSVKGRFTISRDNAKNTVYLQMNSLKPEDTAVYYCAARRVTSPFGTDSWGQGTQVTVSS	low polyreactivity
QVQLVESGGGLVQAGGSLRLSCAASGRNFGTNAMGWYRQAPGKERELVASIDLSADSTYYADSVKGRFTISRDNAKNTVYLQMNSLKPEDTAVYYCNKDGYPWPPNLDYWGQGTQVTVSS	low polyreactivity
QVQLVESGGGLVQAGGSLRLSCAASGRIFAYYAMGWYRQAPGKERELVAGISKSGGRTYYADSVKGRFTISRDNAKNTVYLQMNSLKPEDTAVYYCAVESYRRYYYWGQGTQVTVSS	high polyreactivity
QVQLVESVGGLVQAGGSLRLSCAASGRTIRWYAMGWYRQAPGKERELVAAITFRGGRTYYADSVKGRFTISRDNEKNTVYLQMNSMKPEDTAVYYCNAVTYSSPYRFDYWGQGTQVTLSS	low polyreactivity
QVQLVESGGGLVQAGGSLRLSCAASGSTFDAYAMGWSRQAPGKERELVAAMTNAGSTNYADSVKGRFTISRDNAKNTVYLQMNSLKPEDTAVYYCATDWYHRYLDGRYDYLGQGTQVTVSS	low polyreactivity
QVQLVESGGGLVQAGGILRLSCAASGSIFYWSTMGWYIQAPGKERELVAAISSIDGNTYYADSVKGRFTISRDNAKNTVYLQMNSLKPEDTAVYYCAAAYYNTDYYYWGQGTQVTVSS	low polyreactivity
QVQLVESGGGLVQAGGSHRLSCAATGIIFARNAMGWYRQAPGKERELVAGINGGRTNYADSVKGRFTISRDNAKNTVYLQMNSLKPEDTAVYYCAARLGRVKYDHWGQGTQVTVSS	high polyreactivity
QVQLVESGGGLVQAGGSLRLSCAASGFTFESNAMGWYRQAPGKERELVAAITSSGGRTYYADSVKGRFTISRDNAKNTVYLQMNSLKPEDTAVYYCAATGKAPRESGGVYSMDWGQGTQVTVSS	low polyreactivity
QVQLVESGGGLVQAGGSLRLSCAASGRIFGINAMGWYRQAPGKERELVAAISWRSGSTYYADSVKGRFTISRDNAKNTVYLQMNSLKPEDTAVYYCAAKQDQDYYWGQGTQVTVSS	low polyreactivity
QVQLVESGGGLVQAGGSLRLSCAASGSTFVYYAMGWYRQAPGKERELVAAINRSGTRTYYADSVKGRFTISRDNAKNTVYLQMNSLKPEDTAVYYCAKAVQGKYGYWGQGTQVTVSS	high polyreactivity
QVQLVESGGGLVQAGGSLRLSCAASGSIFSENTMGWYRPAPGKKRELVADITSGGSTNYADSVKGRFTISRDNAKKTVYLQMNSLKPEDTAVYYCAADYNGEYDYWGLGTQVTVSS	low polyreactivity
QVQLVESGGGSVQAGGSLRLSCAASGFTFRYYAMGWYRQAPGKERELVARISYSGTSTYYADSVKGRFTISRDNAKNTVYLQMNSLKPEDTAVYYCAKLHRTYRQYIYDYWGQGTQVTVSS	high polyreactivity
QVQLVESGGGLVQAGGSLRLSCAASGITFPRYTMGWYRPAPGKERELVAAISSGGSTYYADSVKGRFTISRDNAKNTVYLQMNSLKPEDTAVYYCNAVVPYWYYIYDYWGQGTQVTVSS	high polyreactivity
QVQLEETGGGLVQAGGSLRLSCAASGFTFYQYAMGWYRKAPRKERELVAAISSSGTSTYYADSVKGRFTISRDNAKNTVYLQMNSLKPEDTAVYYCAARRYKLFYWGQGTQVTVSS	low polyreactivity
QVQLVESGGGLVQAGGSLRLSCAASGYIFRGYVMGWYRQAPGTERELVAGISRSGSSTYYADSVKGRFTISRDNAKNNVYLQMNSLKPEDTAVYYCAAVRSGIEYGYWGQGTQVTVSS	high polyreactivity
QVQLVESGGGIVQAGGSLRLRCAASGSIFVPYAMGWYRQAPGKERELVAAISSRGGRTYYADSVKGRFTISRDNAKNTVYLQMNSLKPEDTAVYYCNKTAGSHIPRLEYWGQGTQVTVSS	low polyreactivity
QVQLVESGGGLVQAGGSLRLSCAASGSIFYDYAMGWYRQAPGKERELVAAISSSGSSTYYADSVKGRFTISRDNAKNTVYLQMNSLKPEDTAVYYCAAYSRRQWKYDYWGQGTQVTVSS	high polyreactivity
